Source: patent publication US9284543B2, “Neutral active soluble truncated PH20 polypeptides and uses thereof” (Halozyme, Inc., priority 2008, dated 2016)

How the values were obtained:
[1] = Hyaluronidase activity of N-glycan site specific deglycosylation mutants (biotinylated-HA assay); type: biochemical; details: media of transfected CHO-S cells
Protocol: In short, a 4×BH 96-well plate was coated with biotinylated-HA (1.1 MDa). The 72 hour post transfection supernatant from cells transfected with human PH20 hyaluronidase carboxy-terminus deletion mutants was diluted in buffer at either pH 7.4 or pH 5.5 and added to individual wells of the plate and allowed to incubate at 37° C. for 90 minutes. The reaction was terminated by addition of 4M guanidine HCl. The wells were washed 4× with Phosphate Buffered Saline with Tween20 (PBST) to remove any digested biotinylated-HA followed by addition of streptavidin-HRP for 1 hour at room temperature. The wells were washed 4× with PBST and the plate was developed with TMB. The plate was read at 450 nm using an ELISA plate reader. Hyaluronidase activity (in Units/mL) was determined by interpolating the measured absorbance at 450 nm with a hyaluronidase reference standard curve. Full length mature human PH20 hyaluronidase and untransfected CHO cells were used as positive and negative controls.
PH20sHis (SEQ ID NO:210) was used as a template for mutagenesis of each asparagine residue to alanine using QuikChange® Site-Directed Mutagenesis Kit (Cat No. 200518, Stratagene). […] Six single mutants were generated, one for each of the N-glycosylation sites. Additionally, three double mutants and a triple mutant were generated for asparagines N82, N166 and N254, all of which are occupied by complex type glycans. Finally, a double mutant N368A/N393A was generated, lacking high mannose glycans. The mutants were transfected into CHO—S cells and expression was performed as described in Example 2A. Secretion into the media and hyaluronidase activity were determined as described in Examples 3 and 5, above.

CHO-S cells = experiment: Western blot analysis of PH20 expression in media and cells after transient expression; type: cell-based, Chinese Hamster; details: media versus cells
In short: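 PH20 expression and solubility were judged by anti-PH20 Western blot of non-reduced media and cell fractions, with expression shown by a ~66 kDa band. Samples came from CHO-S cells transiently transfected (GeneJuice) with mutant PH20-HZ24 DNA and cultured 48-72 h. GPI-anchored mutants were cleaved with PI-PLC to release soluble protein.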

[2] = Microtiter hyaluronidase activity assay with biotinylated-hyaluronic acid; type: biochemical; details: Table 6, 72 hour post transfection supernatant

Row | Activity pH 5.5 [1] | Activity pH 7.4 [1] | pH 5.5 Activity ([2]; pH 5.5) | pH 7.4 Activity ([2]; pH 7.4) | Molecule | Expressed in Media (CHO-S cells)
1 | YES | YES |  |  | N254A: PH20sHis N-glycosylation site mutant N254A, SEQ ID NO:205 (protein, His tag; PH20sHis N254A) MGVLKFKHIFFRSFVKSSGVSQIVFTFLLIPCCLTLNFRAPPVIPNVPFLWAWNAPSEFCLGKFDEPLDMSLFSFIGSPRINATGQGVTIFYVDRLGYYPYIDSITGVTVNGGIPQKISLQDHLDKAKKDITFYMPVDNLGMAVIDWEEWRPTWARNWKPKDVYKNRSIELVQQQNVQLSLTEATEKAKQEFEKAGKDFLVETIKLGKLLRPNHLWGYYLFPDCYNHHYKKPGYNGSCFNVEIKRNDDLSWLWAESTALYPSIYLNTQQSPVAATLYVRNRVREAIRVSKIPDAKSPLPVFAYTRIVFTDQVLKFLSQDELVYTFGETVALGASGIVIWGTLSIMRSMKSCLLLDNYMETILNPYIINVTLAAKMCSQVLCQEQGVCIRKNWNSSDYLHLNPDNFAIQLEKGGKFTVRGKPTLEDLEQFSEKFYCSCYSTLSCKEKADVKDTDAVDVCIADGVCIDAFLKPPMETEEPQIFYNASPSTLSHHHHHH | 
2 | YES | YES |  |  | N82A/N166A/N254A: PH20sHis triple mutant, SEQ ID NO:209 (protein, His tag; PH20sHis N82A/N166A/N254A) MGVLKFKHIFFRSFVKSSGVSQIVFTFLLIPCCLTLNFRAPPVIPNVPFLWAWNAPSEFCLGKFDEPLDMSLFSFIGSPRIAATGQGVTIFYVDRLGYYPYIDSITGVTVNGGIPQKISLQDHLDKAKKDITFYMPVDNLGMAVIDWEEWRPTWARNWKPKDVYKARSIELVQQQNVQLSLTEATEKAKQEFEKAGKDFLVETIKLGKLLRPNHLWGYYLFPDCYNHHYKKPGYNGSCFNVEIKRNDDLSWLWAESTALYPSIYLNTQQSPVAATLYVRNRVREAIRVSKIPDAKSPLPVFAYTRIVFTDQVLKFLSQDELVYTFGETVALGASGIVIWGTLSIMRSMKSCLLLDNYMETILNPYIINVTLAAKMCSQVLCQEQGVCIRKNWNSSDYLHLNPDNFAIQLEKGGKFTVRGKPTLEDLEQFSEKFYCSCYSTLSCKEKADVKDTDAVDVCIADGVCIDAFLKPPMETEEPQIFYNASPSTLSHHHHHH | 
3 | YES | YES |  |  | N166A/N254A: PH20sHis double mutant, SEQ ID NO:208 (protein, His tag; PH20sHis N166A/N254A) MGVLKFKHIFFRSFVKSSGVSQIVFTFLLIPCCLTLNFRAPPVIPNVPFLWAWNAPSEFCLGKFDEPLDMSLFSFIGSPRINATGQGVTIFYVDRLGYYPYIDSITGVTVNGGIPQKISLQDHLDKAKKDITFYMPVDNLGMAVIDWEEWRPTWARNWKPKDVYKARSIELVQQQNVQLSLTEATEKAKQEFEKAGKDFLVETIKLGKLLRPNHLWGYYLFPDCYNHHYKKPGYNGSCFNVEIKRNDDLSWLWAESTALYPSIYLNTQQSPVAATLYVRNRVREAIRVSKIPDAKSPLPVFAYTRIVFTDQVLKFLSQDELVYTFGETVALGASGIVIWGTLSIMRSMKSCLLLDNYMETILNPYIINVTLAAKMCSQVLCQEQGVCIRKNWNSSDYLHLNPDNFAIQLEKGGKFTVRGKPTLEDLEQFSEKFYCSCYSTLSCKEKADVKDTDAVDVCIADGVCIDAFLKPPMETEEPQIFYNASPSTLSHHHHHH | 
4 | YES | YES |  |  | N82A/N254A: PH20sHis double mutant, SEQ ID NO:207 (protein, His tag; PH20sHis N82A/N254A) MGVLKFKHIFFRSFVKSSGVSQIVFTFLLIPCCLTLNFRAPPVIPNVPFLWAWNAPSEFCLGKFDEPLDMSLFSFIGSPRIAATGQGVTIFYVDRLGYYPYIDSITGVTVNGGIPQKISLQDHLDKAKKDITFYMPVDNLGMAVIDWEEWRPTWARNWKPKDVYKNRSIELVQQQNVQLSLTEATEKAKQEFEKAGKDFLVETIKLGKLLRPNHLWGYYLFPDCYNHHYKKPGYNGSCFNVEIKRNDDLSWLWAESTALYPSIYLNTQQSPVAATLYVRNRVREAIRVSKIPDAKSPLPVFAYTRIVFTDQVLKFLSQDELVYTFGETVALGASGIVIWGTLSIMRSMKSCLLLDNYMETILNPYIINVTLAAKMCSQVLCQEQGVCIRKNWNSSDYLHLNPDNFAIQLEKGGKFTVRGKPTLEDLEQFSEKFYCSCYSTLSCKEKADVKDTDAVDVCIADGVCIDAFLKPPMETEEPQIFYNASPSTLSHHHHHH | 
5 | YES | YES |  |  | N82A/N166A: PH20sHis double mutant, SEQ ID NO:206 (protein, His tag; PH20sHis N82A/N166A) MGVLKFKHIFFRSFVKSSGVSQIVFTFLLIPCCLTLNFRAPPVIPNVPFLWAWNAPSEFCLGKFDEPLDMSLFSFIGSPRIAATGQGVTIFYVDRLGYYPYIDSITGVTVNGGIPQKISLQDHLDKAKKDITFYMPVDNLGMAVIDWEEWRPTWARNWKPKDVYKARSIELVQQQNVQLSLTEATEKAKQEFEKAGKDFLVETIKLGKLLRPNHLWGYYLFPDCYNHHYKKPGYNGSCFNVEIKRNDDLSWLWNESTALYPSIYLNTQQSPVAATLYVRNRVREAIRVSKIPDAKSPLPVFAYTRIVFTDQVLKFLSQDELVYTFGETVALGASGIVIWGTLSIMRSMKSCLLLDNYMETILNPYIINVTLAAKMCSQVLCQEQGVCIRKNWNSSDYLHLNPDNFAIQLEKGGKFTVRGKPTLEDLEQFSEKFYCSCYSTLSCKEKADVKDTDAVDVCIADGVCIDAFLKPPMETEEPQIFYNASPSTLSHHHHHH | 
6 |  |  | 2.79 Units/ml | 3.321 Units/ml | SPAM1-FLKP: C-terminally truncated human PH20, precursor 471 aa (SEQ ID NO:29), mature 436 aa (SEQ ID NO:81) (protein, listed as Homo sapiens, HuPH20 precursor 1-471; Mature HuPH20 36-471) chain 1: MGVLKFKHIFFRSFVKSSGVSQIVFTFLLIPCCLTLNFRAPPVIPNVPFLWAWNAPSEFCLGKFDEPLDMSLFSFIGSPRINATGQGVTIFYVDRLGYYPYIDSITGVTVNGGIPQKISLQDHLDKAKKDITFYMPVDNLGMAVIDWEEWRPTWARNWKPKDVYKNRSIELVQQQNVQLSLTEATEKAKQEFEKAGKDFLVETIKLGKLLRPNHLWGYYLFPDCYNHHYKKPGYNGSCFNVEIKRNDDLSWLWNESTALYPSIYLNTQQSPVAATLYVRNRVREAIRVSKIPDAKSPLPVFAYTRIVFTDQVLKFLSQDELVYTFGETVALGASGIVIWGTLSIMRSMKSCLLLDNYMETILNPYIINVTLAAKMCSQVLCQEQGVCIRKNWNSSDYLHLNPDNFAIQLEKGGKFTVRGKPTLEDLEQFSEKFYCSCYSTLSCKEKADVKDTDAVDVCIADGVCIDAFLKP chain 2: LNFRAPPVIPNVPFLWAWNAPSEFCLGKFDEPLDMSLFSFIGSPRINATGQGVTIFYVDRLGYYPYIDSITGVTVNGGIPQKISLQDHLDKAKKDITFYMPVDNLGMAVIDWEEWRPTWARNWKPKDVYKNRSIELVQQQNVQLSLTEATEKAKQEFEKAGKDFLVETIKLGKLLRPNHLWGYYLFPDCYNHHYKKPGYNGSCFNVEIKRNDDLSWLWNESTALYPSIYLNTQQSPVAATLYVRNRVREAIRVSKIPDAKSPLPVFAYTRIVFTDQVLKFLSQDELVYTFGETVALGASGIVIWGTLSIMRSMKSCLLLDNYMETILNPYIINVTLAAKMCSQVLCQEQGVCIRKNWNSSDYLHLNPDNFAIQLEKGGKFTVRGKPTLEDLEQFSEKFYCSCYSTLSCKEKADVKDTDAVDVCIADGVCIDAFLKP | YES
